Laboratory results reported in the supplement of paper PMC5998384.

What was measured:
HeLa Kyoto [1] = experiment: solubility change mitosis vs G1/S (difference of NP-40 vs SDS log2 ratios) (log2 ratio difference); higher = more soluble in mitosis
HeLa Kyoto [2] = experiment: melting temperature (median over replicates), in situ; higher = more thermally stable
HeLa Kyoto [3] = experiment: solubility in G1/S (NP-40 vs SDS abundance) (log2 ratio); higher = more soluble; details: cell cycle stage: G1/S
HeLa Kyoto [4] = experiment: thermal stability score vs G1/S (z-score of summed log2 fold changes over temperatures); higher = more thermally stable than in G1/S
[5] = cell cycle stage: early G1 (4.5 h after nocodazole release)
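For melting temperature (median over replicates), in situ in this document: HeLa Kyoto cells synchronized by double thymidine or nocodazole block, proteins quantified by TMT10plex mass spectrometry, three independent biological replicates.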
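For solubility change mitosis vs G1/S (difference of NP-40 vs SDS log2 ratios) in this document: synchronized HeLa Kyoto cells (double thymidine block for G1/S, nocodazole release for mitosis), protein amounts in NP-40 versus SDS lysates quantified by mass spectrometry, three biological replicates.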
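For solubility in G1/S (NP-40 vs SDS abundance) in this document: HeLa Kyoto cells arrested at G1/S by double thymidine block, proteins quantified by TMT10plex mass spectrometry in mild NP-40 versus SDS extracts, three biological replicates.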
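For thermal stability score vs G1/S (z-score of summed log2 fold changes over temperatures) in this document: synchronized HeLa Kyoto cells, proteins quantified by TMT10plex mass spectrometry, three biological replicates, mitosis taken 0.5 h after nocodazole release, G1/S directly after double thymidine block.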

Which results are given for “MRPRKAFLLLLLLGLVQLLAVAGAEGPDEDSSNRENAIEDEEEEEEEDDDEEEDDLEVKEENGVLVLNDANFDNFVADKDTVLLEFYAPWCGHCKQFAPEYEKIANILKDKDPPIPVAKIDATSASVLASRFDVSGYPTIKILKKGQAVDYEGSRTQEEIVAKVREVSQPDWTPPPEVTLVLTKENFDEVVNDADIILVEFYAPWCGHCKKLAPEYEKAAKELSKRSPPIPLAKVDATAETDLAKRFDVSGYPTLKIFRKGRPYDYNGPREKYGIVDYMIEQSGPPSKEILTLKQVQEFLKDGDDVIIIGVFKGESDPAYQQYQDAANNLREDYKFHHTFSTEIAKFLKVSQGQLVVMQPEKFQSKYEPRSHMMDVQGSTQDSAIKDFVLKYALPLVGHRKVSNDAKRYTRRPLVVVYYSVDFSFDYRAATQFWRSKVLEVAKDFPEYTFAIADEEDYAGEVKDLGLSESGEDVNAAILDESGKKFAMEPEEFDSDTLREFVTAFKKGKLKPVIKSQPVPKNNKGPVKVVVGKTFDSIVMDPKKDVLIEFYAPWCGHCKQLEPVYNSLAKKYKGQKGLVIAKMDATANDVPSDRYKVEGFPTIYFAPSGDKKNPVKFEGGDRDLEHLSKFIEEHATKLSRTKEEL [PDIA4]”?
solubility change mitosis (log2) (HeLa Kyoto [1]): -0.0655; melting temperature (HeLa Kyoto [2]; cell cycle stage: G1/S): 53.9 °C; melting temperature (HeLa Kyoto [2]; cell cycle stage: mitosis): 54.4 °C; solubility in G1/S (log2) (HeLa Kyoto [3]): 0.264; thermal stability score (HeLa Kyoto [4]; [5]): 3.99; thermal stability score (HeLa Kyoto [4]; cell cycle stage: mitosis): 4.66

For “MRPVRLMKVFVTRRIPAEGRVALARAADCEVEQWDSDEPIPAKELERGVAGAHGLLCLLSDHVDKRILDAAGANLKVISTMSVGIDHLALDEIKKRGIRVGYTPDVLTDTTAELAVSLLLTTCRRLPEAIEEVKNGGWTSWKPLWLCGYGLTQSTVGIIGLGRIGQAIARRLKPFGVQRFLYTGRQPRPEEAAEFQAEFVSTPELAAQSDFIVVACSLTPATEGLCNKDFFQKMKETAVFINISRGDVVNQDDLYQALASGKIAAAGLDVTSPEPLPTNHPLLTLKNCVILPHIGSATHRTRNTMSLLAANNLLAGLRGEPMPSELKL [GRHPR]”, which “solubility change mitosis (log2)” value (HeLa Kyoto [1]) is on record?
The value was -0.204.

And the melting temperature (HeLa Kyoto [2]; cell cycle stage: G1/S)?
The melting temperature was 54.3 °C.

What about the melting temperature (HeLa Kyoto [2]; cell cycle stage: mitosis) of the same sequence?
Its melting temperature is 55 °C.

And the “solubility in G1/S (log2)” value (HeLa Kyoto [3])?
Its value is 0.0329.

And the thermal stability score (HeLa Kyoto [4]; [5])?
The thermal stability score was 0.108.

What about the thermal stability score (HeLa Kyoto [4]; cell cycle stage: mitosis) of the same sequence?
Its thermal stability score is 0.371.

How did the “solubility change mitosis (log2)” value (HeLa Kyoto [1]) turn out when “MRRLNRKKTLSLVKELDAFPKVPESYVETSASGGTVSLIAFTTMALLTIMEFSVYQDTWMKYEYEVDKDFSSKLRINIDITVAMKCQYVGADVLDLAETMVASADGLVYEPTVFDLSPQQKEWQRMLQLIQSRLQEEHSLQDVIFKSAFKSTSTALPPREDDSSQSPNACRIHGHLYVNKVAGNFHITVGKAIPHPRGHAHLAALVNHESYNFSHRIDHLSFGELVPAIINPLDGTEKIAIDHNQMFQYFITVVPTKLHTYKISADTHQFSVTERERIINHAAGSHGVSGIFMKYDLSSLMVTVTEEHMPFWQFFVRLCGIVGGIFSTTGMLHGIGKFIVEIICCRFRLGSYKPVNSVPFEDGHTDNHLPLLENNTH [ERGIC2]” was run?
The value was -0.216.

And the melting temperature (HeLa Kyoto [2]; cell cycle stage: G1/S)?
The melting temperature was 54.8 °C.

And the melting temperature (HeLa Kyoto [2]; cell cycle stage: mitosis)?
Its melting temperature is 53.8 °C.

What about the “solubility in G1/S (log2)” value (HeLa Kyoto [3]) of the same sequence?
The value was -0.0386.

And the thermal stability score (HeLa Kyoto [4]; [5])?
Its thermal stability score is -2.27.

And the thermal stability score (HeLa Kyoto [4]; cell cycle stage: mitosis)?
Its thermal stability score is -7.02.

With “MRRMWATQGLAVALALSVLPGSRALRPGDCEVCISYLGRFYQDLKDRDVTFSPATIENELIKFCREARGKENRLCYYIGATDDAATKIINEVSKPLAHHIPVEKICEKLKKKDSQICELKYDKQIDLSTVDLKKLRVKELKKILDDWGETCKGCAEKSDYIRKINELMPKYAPKAASARTDL [MANF]” as the sequence, how does the “solubility change mitosis (log2)” value (HeLa Kyoto [1]) read?
Its value is 0.0195.

What about the melting temperature (HeLa Kyoto [2]; cell cycle stage: G1/S) of the same sequence?
The melting temperature was 54.1 °C.

And the melting temperature (HeLa Kyoto [2]; cell cycle stage: mitosis)?
Its melting temperature is 52.7 °C.

What about the “solubility in G1/S (log2)” value (HeLa Kyoto [3]) of the same sequence?
The value was 0.682.

What about the thermal stability score (HeLa Kyoto [4]; [5]) of the same sequence?
Its thermal stability score is -0.366.

And the thermal stability score (HeLa Kyoto [4]; cell cycle stage: mitosis)?
Its thermal stability score is -3.76.

How did the “solubility change mitosis (log2)” value (HeLa Kyoto [1]) turn out when “MRRSEVLAEESIVCLQKALNHLREIWELIGIPEDQRLQRTEVVKKHIKELLDMMIAEEESLKERLIKSISVCQKELNTLCSELHVEPFQEEGETTILQLEKDLRTQVELMRKQKKERKQELKLLQEQDQELCEILCMPHYDIDSASVPSLEELNQFRQHVTTLRETKASRREEFVSIKRQIILCMEALDHTPDTSFERDVVCEDEDAFCLSLENIATLQKLLRQLEMQKSQNEAVCEGLRTQIRELWDRLQIPEEEREAVATIMSGSKAKVRKALQLEVDRLEELKMQNMKKVIEAIRVELVQYWDQCFYSQEQRQAFAPFCAEDYTESLLQLHDAEIVRLKNYYEVHKELFEGVQKWEETWRLFLEFERKASDPNRFTNRGGNLLKEEKQRAKLQKMLPKLEEELKARIELWEQEHSKAFMVNGQKFMEYVAEQWEMHRLEKERAKQERQLKNKKQTETEMLYGSAPRTPSKRRGLAPNTPGKARKLNTTTMSNATANSSIRPIFGGTVYHSPVSRLPPSGSKPVAASTCSGKKTPRTGRHGANKENLELNGSILSGGYPGSAPLQRNFSINSVASTYSEFAKDPSLSDSSTVGLQRELSKASKSDATSGILNSTNIQS [PRC1]” was run?
The value was 0.431.

And the melting temperature (HeLa Kyoto [2]; cell cycle stage: G1/S)?
The melting temperature was 47.1 °C.

And the melting temperature (HeLa Kyoto [2]; cell cycle stage: mitosis)?
Its melting temperature is 49 °C.

What about the “solubility in G1/S (log2)” value (HeLa Kyoto [3]) of the same sequence?
Its value is 0.0588.

What about the thermal stability score (HeLa Kyoto [4]; [5]) of the same sequence?
The thermal stability score was 5.68.

What about the thermal stability score (HeLa Kyoto [4]; cell cycle stage: mitosis) of the same sequence?
The thermal stability score was 7.18.

Which “solubility change mitosis (log2)” value (HeLa Kyoto [1]) does the source give for “MRSARSTALNRGEQRAVRYYSHMKLNMAEEEDYMSDSFINVQEDIRPGLPMLRQIREARRKEEKQQEANLKNRQKSLKEEEQERRDIGLKNALGCENKGFALLQKMGYKSGQALGKSGGGIVEPIPLNIKTGKSGIGHEASLKRKAEEKLESYRKKIHMKNQAEEKAAEQFRMRLKNKQDEMKLEGDLRRSQRACQQLDVQKNIQVPREAWYWLRLEEETEEDEEEKEQDEDEYKSEDLSVLEKLQILTSYLREEHLYCIWCGTAYEDKEDLSSNCPGPTSADHD [GPATCH11]” here?
The value was 0.138.

What about the melting temperature (HeLa Kyoto [2]; cell cycle stage: G1/S) of the same sequence?
Its melting temperature is 52.1 °C.

What about the melting temperature (HeLa Kyoto [2]; cell cycle stage: mitosis) of the same sequence?
Its melting temperature is 52.3 °C.

And the “solubility in G1/S (log2)” value (HeLa Kyoto [3])?
Its value is 0.127.

And the thermal stability score (HeLa Kyoto [4]; [5])?
The thermal stability score was -1.77.

And the thermal stability score (HeLa Kyoto [4]; cell cycle stage: mitosis)?
Its thermal stability score is -0.0183.

Which results are given for “MRSSCVLLTALVALAAYYVYIPLPGSVSDPWKLMLLDATFRGAQQVSNLIHYLGLSHHLLALNFIIVSFGKKSAWSSAQVKVTDTDFDGVEVRVFEGPPKPEEPLKRSVVYIHGGGWALASAKIRYYDELCTAMAEELNAVIVSIEYRLVPKVYFPEQIHDVVRATKYFLKPEVLQKYMVDPGRICISGDSAGGNLAAALGQQFTQDASLKNKLKLQALIYPVLQALDFNTPSYQQNVNTPILPRYVMVKYWVDYFKGNYDFVQAMIVNNHTSLDVEEAAAVRARLNWTSLLPASFTKNYKPVVQTTGNARIVQELPQLLDARSAPLIADQAVLQLLPKTYILTCEHDVLRDDGIMYAKRLESAGVEVTLDHFEDGFHGCMIFTSWPTNFSVGIRTRNSYIKWLDQNL [NCEH1]”?
solubility change mitosis (log2) (HeLa Kyoto [1]): -0.118; melting temperature (HeLa Kyoto [2]; cell cycle stage: G1/S): 57.4 °C; melting temperature (HeLa Kyoto [2]; cell cycle stage: mitosis): 57.7 °C; solubility in G1/S (log2) (HeLa Kyoto [3]): 0.156; thermal stability score (HeLa Kyoto [4]; [5]): -0.627; thermal stability score (HeLa Kyoto [4]; cell cycle stage: mitosis): -0.868

For “MSAAGLLAPAPAQAGAPPAPEYYPEEDEELESAEDDERSCRGRESDEDTEDASETDLAKHDEEDYVEMKEQMYQDKLASLKRQLQQLQEGTLQEYQKRMKKLDQQYKERIRNAELFLQLETEQVERNYIKEKKAAVKEFEDKKVELKENLIAELEEKKKMIENEKLTMELTGDSMEVKPIMTRKLRRRPNDPVPIPDKRRKPAPAQLNYLLTDEQIMEDLRTLNKLKSPKRPASPSSPEHLPATPAESPAQRFEARIEDGKLYYDKRWYHKSQAIYLESKDNQKLSCVISSVGANEIWVRKTSDSTKMRIYLGQLQRGLFVIRRRSAA [SUDS3]”, which “solubility change mitosis (log2)” value (HeLa Kyoto [1]) is on record?
Its value is 0.238.

And the melting temperature (HeLa Kyoto [2]; cell cycle stage: G1/S)?
The melting temperature was 49 °C.

And the melting temperature (HeLa Kyoto [2]; cell cycle stage: mitosis)?
The melting temperature was 50.6 °C.

And the “solubility in G1/S (log2)” value (HeLa Kyoto [3])?
The value was 0.341.

What about the thermal stability score (HeLa Kyoto [4]; [5]) of the same sequence?
The thermal stability score was 0.216.

What about the thermal stability score (HeLa Kyoto [4]; cell cycle stage: mitosis) of the same sequence?
The thermal stability score was 0.399.

“MSAAKENPCRKFQANIFNKSKCQNCFKPRESHLLNDEDLTQAKPIYGGWLLLAPDGTDFDNPVHRSRKWQRRFFILYEHGLLRYALDEMPTTLPQGTINMNQCTDVVDGEGRTGQKFSLCILTPEKEHFIRAETKEIVSGWLEMLMVYPRTNKQNQKKKRKVEPPTPQEPGPAKVAVTSSSSSSSSSSSIPSAEKVPTTKSTLWQEEMRTKDQPDGSSLSPAQSPSQSQPPAASSLREPGLESKEEESAMSSDRMDCGRKVRVESGYFSLEKTKQDLKAEEQQLPPPLSPPSPSTPNHRRSQVIEKFEALDIEKAEHMETNAVGPSPSSDTRQGRSEKRAFPRKRDFTNEAPPAPLPDASASPLSPHRRAKSLDRRSTEPSVTPDLLNFKKGWLTKQYEDGQWKKHWFVLADQSLRYYRDSVAEEAADLDGEIDLSACYDVTEYPVQRNYGFQIHTKEGEFTLSAMTSGIRRNWIQTIMKHVHPTTAPDVTSSLPEEKNKSSCSFETCPRPTEKQEAELGEPDPEQKRSRARERRREGRSKTFDWAEFRPIQQALAQERVGGVGPADTHEPLRPEAEPGELERERARRREERRKRFGMLDATDGPGTEDAALRMEVDRSPGLPMSDLKTHNVHVEIEQRWHQVETTPLREEKQVPIAPVHLSSEDGGDRLSTHELTSLLEKELEQSQKEASDLLEQNRLLQDQLRVALGREQSAREGYVLQATCERGFAAMEETHQKKIEDLQRQHQRELEKLREEKDRLLAEETAATISAIEAMKNAHREEMERELEKSQRSQISSVNSDVEALRRQYLEELQSVQRELEVLSEQYSQKCLENAHLAQALEAERQALRQCQRENQELNAHNQELNNRLAAEITRLRTLLTGDGGGEATGSPLAQGKDAYELEVLLRVKESEIQYLKQEISSLKDELQTALRDKKYASDKYKDIYTELSIAKAKADCDISRLKEQLKAATEALGEKSPDSATVSGYDIMKSKSNPDFLKKDRSCVTRQLRNIRSKSVIEQVSWDT [MPRIP]” was tested. Which “solubility change mitosis (log2)” value (HeLa Kyoto [1]) did it give?
The value was 0.41.

And the melting temperature (HeLa Kyoto [2]; cell cycle stage: G1/S)?
The melting temperature was 51.9 °C.

What about the melting temperature (HeLa Kyoto [2]; cell cycle stage: mitosis) of the same sequence?
Its melting temperature is 52.6 °C.

And the “solubility in G1/S (log2)” value (HeLa Kyoto [3])?
The value was -1.2.

What about the thermal stability score (HeLa Kyoto [4]; [5]) of the same sequence?
The thermal stability score was -0.81.

And the thermal stability score (HeLa Kyoto [4]; cell cycle stage: mitosis)?
The thermal stability score was -1.05.
